Measured values reported in patent US20230265151A1, “GIP/GLP1 CO-AGONIST COMPOUNDS” (priority 2020, published 2023).
Positions count from the first letter of the chain named.

B1: Example 210 (peptide)
peptide: YXEGTXTSDXSIXLDXKAQXEFIXXLIKGGPSSGAPPPS
modifications: Aib2, αMeF(2F)6, 4Pal10, αMeL13, Orn16, K17(Z), Aib20, D-Glu24, αMeY25, K28(Z), C-terminal NH2; Z = AEEA2-CO-(CH2)12-CO2H
B2: Example 252 (peptide)
peptide: B1 peptide with K17I, X24K
modifications: Aib2, αMeF(2F)6, 2Nal10, αMeL13, Orn16, Aib20, K24(Z), αMeY25, K28(Z), C-terminal NH2; Z = AEEA2-(γ-Glu)-CO-(CH2)12-CO2H
B3: Example 224 (peptide)
peptide: B1 peptide
modifications: Aib2, αMeF(2F)6, 4Pal10, αMeL13, Orn16, K17(Z), Aib20, D-Glu24, αMeY25, K28(Z), C-terminal NH2; Z = AEEA3-(γ-Glu)-CO-(CH2)12-CO2H
B4: Example 253 (peptide)
peptide: B1 peptide with K17I, E21K
modifications: Aib2, αMeF(2F)6, 2Nal10, αMeL13, Orn16, Aib20, K21(Z), D-Glu24, αMeY25, K28(Z), C-terminal NH2; Z = AEEA2-(γ-Glu)-CO-(CH2)12-CO2H
B5: Example 211 (peptide)
peptide: B1 peptide with S11X, K28E, P31K
modifications: Aib2, αMeF(2F)6, 4Pal10, Ac5c11, αMeL13, Orn16, K17(Z), Aib20, D-Glu24, αMeY25, K31(Z), C-terminal NH2; Z = AEEA2-(γ-Glu)-CO-(CH2)12-CO2H
B6: Example 250 (peptide)
peptide: B1 peptide
modifications: Aib2, αMeF(2F)6, 2Nal10, αMeL13, Orn16, K17(Z), Aib20, D-Glu24, αMeY25, K28(Z), C-terminal NH2; Z = AEEA2-(γ-Glu)-CO-(CH2)12-CO2H
B7: Example 249 (peptide)
peptide: B1 peptide with E21K, K28E
modifications: Aib2, αMeF(2F)6, 2Nal10, αMeL13, Orn16, K17(Z), Aib20, K21(Z), D-Glu24, αMeY25, C-terminal NH2; Z = AEEA2-(γ-Glu)-CO-(CH2)12-CO2H
B8: Example 222 (peptide)
peptide: B1 peptide with K17I, E21K
modifications: Aib2, αMeF(2F)6, 4Pal10, αMeL13, Orn16, Aib20, K21(Z), D-Glu24, αMeY25, K28(Z), C-terminal NH2; Z = AEEA2-CO-(CH2)12-CO2H
B9: Example 214 (peptide)
peptide: B1 peptide with S11X, X24K, K28E
modifications: Aib2, αMeF(2F)6, 4Pal10, αMeS11, αMeL13, Orn16, K17(Z), Aib20, K24(Z), αMeY25, C-terminal NH2; Z = AEEA2-(γ-Glu)-CO-(CH2)12-CO2H
B10: Example 227 (peptide)
peptide: B1 peptide with K17I, E21K
modifications: Aib2, αMeF(2F)6, 4Pal10, αMeL13, Orn16, Aib20, K21(Z), D-Glu24, αMeY25, K28(Z), C-terminal NH2; Z = AEEA3-(γ-Glu)-CO-(CH2)12-CO2H
B11: Example 213 (peptide)
peptide: B1 peptide with S11X, K28E, P31K
modifications: Aib2, αMeF(2F)6, 4Pal10, αMeS11, αMeL13, Orn16, K17(Z), Aib20, D-Glu24, αMeY25, K31(Z), C-terminal NH2; Z = AEEA2-(γ-Glu)-CO-(CH2)12-CO2H
B12: Example 226 (peptide)
peptide: B1 peptide with K17I, X24K
modifications: Aib2, αMeF(2F)6, 4Pal10, αMeL13, Orn16, Aib20, K24(Z), αMeY25, K28(Z), C-terminal NH2; Z = AEEA3-(γ-Glu)-CO-(CH2)12-CO2H
B13: Example 221 (peptide)
peptide: YXEGTXTSDXSIXLDXKAQXEFIXXLIEGGPSSGAPPPSK
modifications: Aib2, αMeF(2F)6, 4Pal10, αMeL13, Orn16, K17(Z), Aib20, D-Glu24, αMeY25, K40(Z), C-terminal NH2; Z = AEEA2-CO-(CH2)12-CO2H
B14: Example 254 (peptide)
peptide: B13 peptide with K17I, E21K
modifications: Aib2, αMeF(2F)6, 2Nal10, αMeL13, Orn16, Aib20, K21(Z), D-Glu24, αMeY25, K40(Z), C-terminal NH2; Z = AEEA2-(γ-Glu)-CO-(CH2)12-CO2H
B15: Example 228 (peptide)
peptide: B13 peptide with K17I, E21K
modifications: Aib2, αMeF(2F)6, 4Pal10, αMeL13, Orn16, Aib20, K21(Z), D-Glu24, αMeY25, K40(Z), C-terminal NH2; Z = AEEA3-(γ-Glu)-CO-(CH2)12-CO2H
B16: Example 251 (peptide)
peptide: B13 peptide
modifications: Aib2, αMeF(2F)6, 2Nal10, αMeL13, Orn16, K17(Z), Aib20, D-Glu24, αMeY25, K40(Z), C-terminal NH2; Z = AEEA2-(γ-Glu)-CO-(CH2)12-CO2H
B17: Example 225 (peptide)
peptide: B13 peptide
modifications: Aib2, αMeF(2F)6, 4Pal10, αMeL13, Orn16, K17(Z), Aib20, D-Glu24, αMeY25, K40(Z), C-terminal NH2; Z = AEEA3-(γ-Glu)-CO-(CH2)12-CO2H

The binders below were run against T1, human glucose-dependent insulinotropic polypeptide (GIP) receptor (human, UniProt P48546 22-466) (assay: cell-based or functional assay).
T1 sequence (looked up): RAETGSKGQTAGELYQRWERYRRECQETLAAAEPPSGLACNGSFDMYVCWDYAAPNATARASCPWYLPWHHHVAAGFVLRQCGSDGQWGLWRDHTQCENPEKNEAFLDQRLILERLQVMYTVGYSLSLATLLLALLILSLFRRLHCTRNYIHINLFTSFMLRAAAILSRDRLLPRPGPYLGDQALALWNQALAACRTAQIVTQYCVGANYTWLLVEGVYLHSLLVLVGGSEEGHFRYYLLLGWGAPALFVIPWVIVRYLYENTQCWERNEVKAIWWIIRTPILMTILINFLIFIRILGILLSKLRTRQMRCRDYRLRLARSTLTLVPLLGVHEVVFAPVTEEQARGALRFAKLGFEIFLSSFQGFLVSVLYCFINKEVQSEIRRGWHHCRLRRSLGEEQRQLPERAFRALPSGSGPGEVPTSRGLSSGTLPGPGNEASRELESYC
With B1 the “cAMP EC50” value was 0.02 nM. For B2, the “cAMP EC50” value was 0.049 nM. B3 was tested, and the “cAMP EC50” value was 0.0374 nM. B4 was tested, and the “cAMP EC50” value was 0.0295 nM. B5 was tested, and the “cAMP EC50” value was 0.0465 nM and the “cAMP Emax” value was 91.6%. With B6 the “cAMP EC50” value was 0.021 nM. With B7 the “cAMP EC50” value was 0.0201 nM. With B8 the “cAMP EC50” value was 0.0195 nM. B9 was tested, and the “cAMP EC50” value was 0.0351 nM and the “cAMP Emax” value was 93.7%. In the case of B10, the “cAMP EC50” value is reported as 0.0224 nM. With B11 the “cAMP EC50” value was 0.0275 nM and the “cAMP Emax” value was 92%. With B12 the “cAMP EC50” value was 0.0232 nM. B13 was tested, and the “cAMP EC50” value was 0.0279 nM. For B14, the “cAMP EC50” value was 0.0273 nM. For B15, the “cAMP EC50” value was 0.0232 nM. B16 was tested, and the “cAMP EC50” value was 0.0305 nM. With B17 the “cAMP EC50” value was 0.0466 nM.

The binders below were run against human glucagon-like peptide-1 (GLP-1) receptor (human, UniProt P43220 24-463) (assay: cell-based or functional assay).
With B1 the “cAMP EC50” value was 0.57 nM. For B2, the “cAMP EC50” value was 0.555 nM. B3 was tested, and the “cAMP EC50” value was 7.51 nM and the “cAMP Emax” value was 88.4%. B4 was tested, and the “cAMP EC50” value was 0.43 nM. In the case of B5, the “cAMP EC50” value is reported as 3.55 nM and the “cAMP Emax” value is reported as 93.1%. With B6 the “cAMP EC50” value was 0.414 nM. B7 was tested, and the “cAMP EC50” value was 0.3 nM. In the case of B8, the “cAMP EC50” value is reported as 0.518 nM. For B9, the “cAMP EC50” value was 0.618 nM and the “cAMP Emax” value was 93.2%. For B10, the “cAMP EC50” value was 1.22 nM. B11 was tested, and the “cAMP EC50” value was 2.14 nM and the “cAMP Emax” value was 94.8%. With B12 the “cAMP EC50” value was 0.611 nM. In the case of B13, the “cAMP EC50” value is reported as 1.83 nM and the “cAMP Emax” value is reported as 83%. B14 was tested, and the “cAMP EC50” value was 0.507 nM. B15 was tested, and the “cAMP EC50” value was 1.34 nM and the “cAMP Emax” value was 91.1%. B16 was tested, and the “cAMP EC50” value was 0.338 nM. For B17, the “cAMP EC50” value was 9.62 nM.

The binders below were run against human glucagon receptor (human, UniProt P47871 26-477) (assay: cell-based or functional assay).
In the case of B1, the “cAMP EC50” value is reported as over 9950 nM. With B2 the “cAMP EC50” value was over 9950 nM. B3 was tested, and the “cAMP EC50” value was over 9950 nM. With B4 the “cAMP EC50” value was over 9950 nM. With B5 the “cAMP EC50” value was over 9950 nM. B6 was tested, and the “cAMP EC50” value was over 9950 nM. For B7, the “cAMP EC50” value was over 9950 nM. B8 was tested, and the “cAMP EC50” value was over 9950 nM. B9 was tested, and the “cAMP EC50” value was over 9950 nM. In the case of B10, the “cAMP EC50” value is reported as over 9950 nM. B11 was tested, and the “cAMP EC50” value was over 9950 nM. B12 was tested, and the “cAMP EC50” value was over 9950 nM. In the case of B13, the “cAMP EC50” value is reported as over 9950 nM. In the case of B14, the “cAMP EC50” value is reported as over 9950 nM. For B15, the “cAMP EC50” value was over 9950 nM. With B16 the “cAMP EC50” value was over 9950 nM. B17 was tested, and the “cAMP EC50” value was over 9950 nM.
